# Data published in publication PMC2259325.
# Read-outs that look alike come from different tables or passages of the source.
# Key:
# Hck SH3 (Homo sapiens) [1] = target: Hck SH3 (Homo sapiens) (UniProt P08631); conditions: cited from earlier work
# Hck SH3 (Homo sapiens) [2] = target: Hck SH3 (Homo sapiens) (UniProt P08631); conditions: cited from earlier work; remark: listed apart in the source
# [3] = target: GST-Fyn SH3 domain fusion protein (wild type) (UniProt P06241); experiment: SPR; Biacore 3000, HBS buffer (10 mM Hepes-NaOH pH 7.4, 150 mM NaCl, 0.005% Tween-20), 25°C; GST-SH3 captured on CM5 chip via amine-coupled anti-GST antibody; NS5A 3 μM - 100 nM flowed over, in triplicate; 1:1 Langmuir fit
# Sequence of GST-Fyn SH3 domain fusion protein (wild type) (P06241 82-143): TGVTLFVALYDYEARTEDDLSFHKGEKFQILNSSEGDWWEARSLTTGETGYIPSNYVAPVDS
# Sequence of Hck SH3 (Homo sapiens) (P08631 75-141): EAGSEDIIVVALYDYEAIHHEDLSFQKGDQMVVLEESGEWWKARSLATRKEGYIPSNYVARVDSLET
substance,measurement,setting,value
Nef (from UniProt P04324),Kd,Hck SH3 (Homo sapiens) [1],0.25 µM
Nef PxxPxR-containing peptide PxxPxR peptide (from UniProt P04324),Kd,Hck SH3 (Homo sapiens) [2],91 µM
"NS5A(Δ250), N-terminally truncated hepatitis C virus non-structural 5A protein (domain or fragment)",koff,[3],0.00494 s⁻¹
same,kon,[3],9050 M⁻¹ s⁻¹
